From the Immune Epitope Database (IEDB) come the findings set out here.

In assay [1] the target is HLA-B*40:01. The assay is described as follows: IEDB peptide-MHC binding, purified MHC/competitive/radioactivity; filed as Kd, often an IC50 or EC50 that approximates it; ≥ and ≤ were set here for values at or beyond the usual limits of such assays.
The target of assay [2] is HLA-B*44:03. The description is as above.
In assay [3] the target is HLA-B*45:01. The assay is described as above.
Assay [4] deals with HLA-B*40:02. The description is as above.
Assay [5] addresses HLA-B*44:02. The description is as above.
Assay [6] has as its target HLA-B*18:01. The description is as above.
The target of assay [7] is HLA-A*02:01. The assay is described as above.
Assay [8] has as its target HLA-B*15:03. The assay is described as above. The following applies: source organism: Vaccinia virus WR.
Assay [9] deals with HLA-A*02:02. Described as above. To be noted: source organism: Homo sapiens.
The target in assay [10] is HLA-A*68:02. Described as above. To be noted: source organism: Homo sapiens.
Assay [11] concerns the target HLA-A*02:03. The assay is described as above. To be noted: source organism: Homo sapiens.
Assay [12] deals with HLA-A*02:06. Described as above. To be noted: source organism: Homo sapiens.
The target in assay [13] is HLA-B*46:01. As to the kind of experiment: IEDB peptide-MHC binding, purified MHC/competitive/fluorescence; filed as Kd, often an IC50 or EC50 that approximates it; ≥ and ≤ were set here for values at or beyond the usual limits of such assays. The following applies: source organism: Giardia lamblia ATCC 50803.
In assay [14] the target is HLA-B*40:01. The assay is described as follows: IEDB peptide-MHC binding, purified MHC/direct/fluorescence; filed as Kd, often an IC50 or EC50 that approximates it; ≥ and ≤ were set here for values at or beyond the usual limits of such assays. To be noted: source organism: Giardia lamblia ATCC 50803.
Assay [15] has as its target HLA-A*01:01. The description is as above. To be noted: source organism: Giardia lamblia ATCC 50803.
Assay [16] concerns the target HLA-A*26:01. Described as above. To be noted: source organism: Giardia lamblia ATCC 50803.
Assay [17] has as its target HLA-B*27:05. The description is as above. The following applies: source organism: Giardia lamblia ATCC 50803.
The target of assay [18] is HLA-B*15:17. Described as above. To be noted: source organism: Giardia lamblia ATCC 50803.
Assay [19] concerns the target HLA-A*11:01. The assay is described as above. The following applies: source organism: Giardia lamblia ATCC 50803.
Assay [20] has as its target HLA-A*31:01. The assay is described as above. The following applies: source organism: Giardia lamblia ATCC 50803.
In assay [21] the target is HLA-A*02:01. Described as above. To be noted: source organism: Giardia lamblia ATCC 50803.
Assay [22] deals with HLA-A*69:01. Described as above. The following applies: source organism: Giardia lamblia ATCC 50803.
Assay [23] deals with HLA-B*57:01. The description is as above. To be noted: source organism: Giardia lamblia ATCC 50803.
The target of assay [24] is HLA-A*03:01. The assay is described as above. The following applies: source organism: Giardia lamblia ATCC 50803.
Assay [25] concerns the target HLA-B*07:02. The description is as above. To be noted: source organism: Giardia lamblia ATCC 50803.
Assay [26] concerns the target HLA-B*15:01. Described as above. The following applies: source organism: Giardia lamblia ATCC 50803.
In assay [27] the target is HLA-B*58:01. Described as above. To be noted: source organism: Giardia lamblia ATCC 50803.
For assay [28], the target named is HLA-B*08:01. Described as above. To be noted: source organism: Giardia lamblia ATCC 50803.
Assay [29] deals with HLA-B*44:02. The assay is described as above. The following applies: source organism: Giardia lamblia ATCC 50803.
Assay [30] has as its target HLA-A*11:01. As to the kind of experiment: IEDB peptide-MHC binding, purified MHC/competitive/fluorescence; ≥ and ≤ were set here for values at or beyond the usual limits of such assays. To be noted: source organism: Vaccinia virus.
The mark [31] stands for this setting: source organism: SARS coronavirus Tor2.
[32] abbreviates: source organism: Lassa virus Josiah.
Setting [33] is: source organism: Mammarenavirus lassaense.

Bounds are passed on as bounds.

With VEFHLDGEVL, the Kd in [1] (setting [31]) worked out at 0.000877 µM; in assay [2] (setting [31]), 0.935 µM; in assay [3] (setting [31]), 6.95 µM; in [4] (setting [31]), 0.14 µM; in [5] (setting [31]), 3.76 µM; in [6] (setting [31]) it was 3.23 µM.

With GETALALLLL, the Kd was 0.0161 µM in assay [1] (setting [31]); 0.149 µM in assay [2] (setting [31]); 1.9 µM in assay [3] (setting [31]); 0.0162 µM in assay [4] (setting [31]); 1.34 µM in assay [5] (setting [31]); not below 48.1 µM in assay [6] (setting [31]).

Consider YVLPRRGPRL, for which the Kd in assay [7] (source organism: Hepatitis C virus subtype 3a) worked out at 3.57 µM.

For KEGIVWVAT, the Kd is 6.26 µM in assay [1] (setting [31]); 12.3 µM in assay [2] (setting [31]); 0.0696 µM in [3] (setting [31]); 0.0296 µM in assay [4] (setting [31]); not below 20 µM in assay [5] (setting [31]); not below 62.8 µM in [6] (setting [31]).

Consider FSALPTNEF, for which the dissociation constant Kd in [8] was found to be 0.13 nM.

For the sequence LLHQSSDKFV, the Kd in assay [9] was 0.0144 µM; in assay [10], 2.97 µM; in assay [7] (source organism: Homo sapiens) it was 0.808 µM; in [11] it was 0.0783 µM; in assay [12], 13.5 µM.

As to SIPNFNQYEA, the dissociation constant Kd in assay [7] (setting [32]) is not below 25 µM.

In the case of SEGNATPGGY, the dissociation constant (Kd) in [1] (setting [33]) is not below 64.2 µM; in assay [2] (setting [33]) it was 7.25 µM; in assay [3] (setting [33]), not below 70 µM; in assay [4] (setting [33]) it was not below 70.8 µM; in [5] (setting [33]), 19.5 µM; in [6] (setting [33]), 18.7 µM.

In the case of ITFHNQRDF, the Kd is not below 20 µM in [13]; not below 20 µM in assay [14]; not below 20 µM in assay [15]; not below 20 µM in assay [16]; not below 20 µM in assay [17]; 0.0052 µM in assay [18]. Also, the Kd in assay [19] is not below 20 µM; in assay [20], not below 20 µM; in [21] it was not below 20 µM; in [22], not below 20 µM; in assay [23], 0.125 µM; in [24], not below 20 µM. Further, the Kd is not below 20 µM in [25]; 0.146 µM in assay [26]; 0.165 µM in [27]; not below 20 µM in [28]; not below 20 µM in assay [29].

With FDAAVSGGL, the equilibrium dissociation constant (Kd) is not below 20 µM in assay [1] (setting [32]); not below 78.1 µM in assay [2] (setting [32]); not below 28.8 µM in [3] (setting [32]); 5.87 µM in assay [4] (setting [32]); not below 77.9 µM in [5] (setting [32]); not below 77.5 µM in assay [6] (setting [32]).

As to SLFEGIDFYT, the Kd in [7] (source organism: Homo sapiens) was found to be 0.0011 µM.

In the case of FKAKWLTPF, in assay [8], the dissociation constant Kd worked out at 0.0731 nM.

For the sequence QKFPYEGGK, the IC50 in assay [30] is not below 140 µM.
